# Data: the Human Domainome abundance scans (Beltran et al. 2025)
# ± gives the uncertainty stated by the source.
# B1: Zinc finger MYM-type protein 2, residues 463 to 506; numbered along this chain, Q9UBW7 (parent)
# chain: IMNCCEQCGEYLPSKGAGNNVLVIDGQQKRFCCQSCVSEYKQVG
# Variants of: B1
# Assay: abundance fitness (aPCA) (normalised: wild type 0, dead -1); higher = more abundant; growth selection in yeast, the domain comes from the species named
# Conditions: Homo sapiens
row,Variant,abundance fitness
1,IMNCCEQCGEYLPSKGAGNNVLKIDGQQKRFCCQSCVSEYKQVG [V23K],-0.052 ± 0.1
2,IMNCCEQCGEYLPSKGAGNNVLHIDGQQKRFCCQSCVSEYKQVG [V23H],-0.079 ± 0.12
3,IMNCCEQCGEYLPSKGAGNNVLQIDGQQKRFCCQSCVSEYKQVG [V23Q],0.181 ± 0.15
4,IMNCCEQCGEYLPSKGAGNNVLEIDGQQKRFCCQSCVSEYKQVG [V23E],0.204 ± 0.12
5,IMNCCEQCGEYLPSKGAGNNVLSIDGQQKRFCCQSCVSEYKQVG [V23S],0.025 ± 0.12
6,IMNCCEQCGEYLPSKGAGNNVLRIDGQQKRFCCQSCVSEYKQVG [V23R],-0.011 ± 0.085
7,IMNCCEQCGEYLPSKGAGNNVLGIDGQQKRFCCQSCVSEYKQVG [V23G],-0.107 ± 0.076
8,IMNCCEQCGEYLPSKGAGNNVLDIDGQQKRFCCQSCVSEYKQVG [V23D],-0.017 ± 0.1
9,IMNCCEQCGEYLPSKGAGNNVLYIDGQQKRFCCQSCVSEYKQVG [V23Y],-0.093 ± 0.18
10,IMNCCEQCGEYLPSKGAGNNVLAIDGQQKRFCCQSCVSEYKQVG [V23A],-0.121 ± 0.11
11,IMNCCEQCGEYLPSKGAGNNVLLIDGQQKRFCCQSCVSEYKQVG [V23L],-0.235 ± 0.1
12,IMNCCEQCGEYLPSKGAGNNVLTIDGQQKRFCCQSCVSEYKQVG [V23T],0.15 ± 0.13
13,IMNCCEQCGEYLPSKGAGNNVLNIDGQQKRFCCQSCVSEYKQVG [V23N],-0.123 ± 0.1
14,IMNCCEQCGEYLPSKGAGNNVLFIDGQQKRFCCQSCVSEYKQVG [V23F],0.23 ± 0.28
15,IMNCCEQCGEYLPSKGAGNNVLIIDGQQKRFCCQSCVSEYKQVG [V23I],0.031 ± 0.12
16,IMNCCEQCGEYLPSKGAGNNVLWIDGQQKRFCCQSCVSEYKQVG [V23W],-0.063 ± 0.086
17,IMNCCEQCGEYLPSKGAGNNVLMIDGQQKRFCCQSCVSEYKQVG [V23M],0.18 ± 0.11
18,IMNCCEQCGEYLPSKGAGNNNLVIDGQQKRFCCQSCVSEYKQVG [V21N],-0.397 ± 0.47
19,IMNCCEQCGEYLPSKGAGNNQLVIDGQQKRFCCQSCVSEYKQVG [V21Q],-0.172 ± 0.13
20,IMNCCEQCGEYLPSKGAGNNMLVIDGQQKRFCCQSCVSEYKQVG [V21M],-0.103 ± 0.11

row,Variant,abundance fitness
1,IMNCCEQCGEYLPSKGAGNNSLVIDGQQKRFCCQSCVSEYKQVG [V21S],-0.153 ± 0.1
2,IMNCCEQCGEYLPSKGAGNNRLVIDGQQKRFCCQSCVSEYKQVG [V21R],-0.264 ± 0.086
3,IMNCCEQCGEYLPSKGAGNNWLVIDGQQKRFCCQSCVSEYKQVG [V21W],-0.02 ± 0.11
4,IMNCCEQCGEYLPSKGAGNNPLVIDGQQKRFCCQSCVSEYKQVG [V21P],-0.402 ± 0.17
5,IMNCCEQCGEYLPSKGAGNNVLVICGQQKRFCCQSCVSEYKQVG [D25C],-0.25 ± 0.12
6,IMNCCEQCGEYLPSKGAGNNVLVIEGQQKRFCCQSCVSEYKQVG [D25E],-0.11 ± 0.085
7,IMNCCEQCGEYLPSKGAGNNVLVIAGQQKRFCCQSCVSEYKQVG [D25A],-0.117 ± 0.12
8,IMNCCEQCGEYLPSKGAGNNVLVIFGQQKRFCCQSCVSEYKQVG [D25F],-0.174 ± 0.16
9,IMNCCEQCGEYLPSKGAGNNVNVIDGQQKRFCCQSCVSEYKQVG [L22N],-0.163 ± 0.41
10,IMNCCEQCGEYLPSKGAGNNVGVIDGQQKRFCCQSCVSEYKQVG [L22G],-0.132 ± 0.068
11,IMNCCEQCGEYLPSKGAGNNVEVIDGQQKRFCCQSCVSEYKQVG [L22E],0.015 ± 0.1
12,IMNCCEQCGEYLPSKGAGNNVCVIDGQQKRFCCQSCVSEYKQVG [L22C],-0.258 ± 0.13
13,IMNCCEQCGEYLPSKGAGNNVWVIDGQQKRFCCQSCVSEYKQVG [L22W],-0.187 ± 0.13
14,IMNCCEQCGEYLPSKGAGNNVKVIDGQQKRFCCQSCVSEYKQVG [L22K],-0.073 ± 0.12
15,IMNCCEQCGEYLPSKGAGNNVSVIDGQQKRFCCQSCVSEYKQVG [L22S],-0.164 ± 0.13
16,IMNCCEQCGEYLPSKGAGNNVQVIDGQQKRFCCQSCVSEYKQVG [L22Q],-0.057 ± 0.13
17,IMNCCEQCGEYLPSKGAGNNVPVIDGQQKRFCCQSCVSEYKQVG [L22P],-0.059 ± 0.17
18,IMNCCEQCGEYLPSKGAGNNVRVIDGQQKRFCCQSCVSEYKQVG [L22R],-0.136 ± 0.083
19,IMNCCEQCGEYLPSKGAGNNVIVIDGQQKRFCCQSCVSEYKQVG [L22I],-0.142 ± 0.18
20,IMNCCEQCGEYLPSKGAGNNVAVIDGQQKRFCCQSCVSEYKQVG [L22A],-0.072 ± 0.088

row,Variant,abundance fitness
1,IMNCCEQCGEYLPSKGAGNNVDVIDGQQKRFCCQSCVSEYKQVG [L22D],0.001 ± 0.17
2,IMNCCEQCGEYLPSKGAGNNVVVIDGQQKRFCCQSCVSEYKQVG [L22V],-0.016 ± 0.09
3,IMNCCEQCGEYLPSKGAGNNVYVIDGQQKRFCCQSCVSEYKQVG [L22Y],0.165 ± 0.14
4,IMNCCEQCGEYLPSKGAGNNVFVIDGQQKRFCCQSCVSEYKQVG [L22F],-0.184 ± 0.35
5,IMNCCEQCGEYLPSKGAGNNVLVWDGQQKRFCCQSCVSEYKQVG [I24W],-0.05 ± 0.083
6,IMNCCEQCGEYLPSKGAGNNVLVKDGQQKRFCCQSCVSEYKQVG [I24K],-0.079 ± 0.1
7,IMNCCEQCGEYLPSKGAGNNVLVMDGQQKRFCCQSCVSEYKQVG [I24M],-0.122 ± 0.16
8,IMNCCEQCGEYLPSKGAGNNVLVSDGQQKRFCCQSCVSEYKQVG [I24S],-0.09 ± 0.084
9,IMNCCEQCGEYLPSKGAGNNVLVTDGQQKRFCCQSCVSEYKQVG [I24T],0.254 ± 0.15
10,IMNCCEQCGEYLPSKGAGNNVLVRDGQQKRFCCQSCVSEYKQVG [I24R],-0.085 ± 0.077
11,IMNCCEQCGEYLPSKGAGNNVLVCDGQQKRFCCQSCVSEYKQVG [I24C],-0.124 ± 0.14
12,IMNCCEQCGEYLPSKGAGNNVLVGDGQQKRFCCQSCVSEYKQVG [I24G],-0.066 ± 0.084
13,IMNCCEQCGEYLPSKGAGNNVLVADGQQKRFCCQSCVSEYKQVG [I24A],0.005 ± 0.094
14,IMNCCEQCGEYLPSKGAGNNVLVFDGQQKRFCCQSCVSEYKQVG [I24F],0.052 ± 0.18
15,IMNCCEQCGEYLPSKGAGNNVLVPDGQQKRFCCQSCVSEYKQVG [I24P],-0.126 ± 0.16
16,IMNCCEQCGEYLPSKGAGNNVLVNDGQQKRFCCQSCVSEYKQVG [I24N],-0.176 ± 0.2
17,IMNCCEQCGEYLPSKGAGNNVLVVDGQQKRFCCQSCVSEYKQVG [I24V],-0.088 ± 0.12
18,IMNCCEQCGEYLPSKGAGNNVLVQDGQQKRFCCQSCVSEYKQVG [I24Q],-0.177 ± 0.2
